The values that follow come from the Human Domainome abundance scans (Beltran et al. 2025).

B1: Lysine-specific demethylase 2B, residues 656 to 722; numbered along this chain, Q8NHM5 (parent)
chain: LPHTAVCLVCGEAGKEDTVEEEEGKFNLMLMECSICNEIIHPGCLKIKESEGVVNDELPNCWECPKC

± gives the uncertainty stated by the source.

In this data set the parent is B1. In words: abundance fitness (aPCA) (normalised: wild type 0, dead -1); higher = more abundant; growth selection in yeast, the domain comes from the species named. The following applies: Homo sapiens.
On to LPHTAVCLVCGEAGKEDTVEEEEGKFNLMLMECSICNEIIHPGCLKIKESEGVVNDELPLCWECPKC [N60L], for which the abundance fitness is -0.3 ± 0.066. Regarding LPHTAVCLVCGEAGKEDTVEEEEGKFNLMLMECSICNEIIHPGCLKIKESEGVVNDELPECWECPKC [N60E], the abundance fitness was -0.211 ± 0.098. In the case of LPHTAVCLVCGEAGKEDTVEEEEGKFNLMLMECSICNEIIHPGCLKIKESEGVVNDELPPCWECPKC [N60P], the abundance fitness is -0.128 ± 0.16.

For the variant LPHTAVCLVCGEAGKEDTVEEEEGKFNLMLMECSICNEIIHPGCLKIKESEGVVNDELPKCWECPKC [N60K], the abundance fitness was -0.176 ± 0.12.

For LPHTAVCLVCGEAGKEDTVEEEEGKFNLMLMECSICNEIIHPGCLKIKESEGVVNDELPRCWECPKC [N60R], the abundance fitness is -0.044 ± 0.08. The figure for LPHTAVCLVCGEAGKEDTVEEEEGKFNLMLMECSICNEIIHPGCLKIKESEGVVNDELPWCWECPKC [N60W] is -0.176 ± 0.1; for LPHTAVCLVCGEAGKEDTVEEEEGKFNLMLMECSICNEIIHPGCLKIKESEGVVNDELPGCWECPKC [N60G] it is -0.062 ± 0.079.

Turning to LPHTAVCLVCGEAGKEDTVEEEEGKFNLMLMECSICNEIIHPGCLKIKESEGVVNDELPQCWECPKC [N60Q], the abundance fitness was -0.155 ± 0.14.

On to LPHTAVCLVCGEAGKEDTVEEEEGKFNLMLMECSICNEIIHPGCLKIKESEGVVNDELPCCWECPKC [N60C], for which the abundance fitness was -0.368 ± 0.18. The value for LPHTAVCLVCGEAGKEDTVEEEEGKFNLMLMECSICNEIIHPGCLKIKESEGVVNDELPICWECPKC [N60I] was -0.186 ± 0.11; that for LPHTAVCLVCGEAGKEDTVEEEEGKFNLMLMECSICNEIIHPGCLKIKESEGVVNDELPHCWECPKC [N60H] was -0.127 ± 0.22. With LPHTAVCLVCGEAGKEDTVEEEEGKFNLMLMECSICNEIIHPGCLKIKESEGVVNDELPTCWECPKC [N60T], the abundance fitness was -0.091 ± 0.14. The figure for LPHTAVCLVCGEAGKEDTVEEEEGKFNLMLMECSICNEIIHPGCLKIKESEGVVNDELVNCWECPKC [P59V] is 0.007 ± 0.17; for LPHTAVCLVCGEAGKEDTVEEEEGKFNLMLMECSICNEIIHPGCLKIKESEGVVNDELKNCWECPKC [P59K] it is 0.076 ± 0.11; for LPHTAVCLVCGEAGKEDTVEEEEGKFNLMLMECSICNEIIHPGCLKIKESEGVVNDELDNCWECPKC [P59D] it is -0.424 ± 0.24. Take LPHTAVCLVCGEAGKEDTVEEEEGKFNLMLMECSICNEIIHPGCLKIKESEGVVNDELNNCWECPKC [P59N]: the abundance fitness was determined as 0.214 ± 0.14. The figure for LPHTAVCLVCGEAGKEDTVEEEEGKFNLMLMECSICNEIIHPGCLKIKESEGVVNDELCNCWECPKC [P59C] is -0.076 ± 0.11; for LPHTAVCLVCGEAGKEDTVEEEEGKFNLMLMECSICNEIIHPGCLKIKESEGVVNDELFNCWECPKC [P59F] it is -0.261 ± 0.16; for LPHTAVCLVCGEAGKEDTVEEEEGKFNLMLMECSICNEIIHPGCLKIKESEGVVNDELWNCWECPKC [P59W] it is -0.319 ± 0.13. The figure for LPHTAVCLVCGEAGKEDTVEEEEGKFNLMLMECSICNEIIHPGCLKIKESEGVVNDELGNCWECPKC [P59G] is -0.076 ± 0.092; for LPHTAVCLVCGEAGKEDTVEEEEGKFNLMLMECSICNEIIHPGCLKIKESEGVVNDELENCWECPKC [P59E] it is 0.249 ± 0.17; for LPHTAVCLVCGEAGKEDTVEEEEGKFNLMLMECSICNEIIHPGCLKIKESEGVVNDELANCWECPKC [P59A] it is -0.117 ± 0.1. The value for LPHTAVCLVCGEAGKEDTVEEEEGKFNLMLMECSICNEIIHPGCLKIKESEGVVNDELRNCWECPKC [P59R] was 0.015 ± 0.077. Regarding LPHTAVCLVCGEAGKEDTVEEEEGKFNLMLMECSICNEIIHPGCLKIKESEGVVNDELMNCWECPKC [P59M], the abundance fitness is -0.183 ± 0.2.

In the case of LPHTAVCLVCGEAGKEDTVEEEEGKFNLMLMECSICNEIIHPGCLKIKESEGVVNDELSNCWECPKC [P59S], the abundance fitness was -0.071 ± 0.11.

Consider LPHTAVCLVCGEAGKEDTVEEEEGKFNLMLMECSICNEIIHPGCLKIKESEGVVNDELQNCWECPKC [P59Q], for which the abundance fitness is -0.024 ± 0.26. In the case of LPHTAVCLVCGEAGKEDTVEEEEGKFNLMLMECSICNEIIHPGCLKIKESEGVVNDELTNCWECPKC [P59T], the abundance fitness was -0.012 ± 0.13. The figure for LPHTAVCLVCGEAGKEDTVEEEEGKFNLMLMECSICNEIIHPGCLKIKESEGVVNDEGPNCWECPKC [L58G] is -0.171 ± 0.078; for LPHTAVCLVCGEAGKEDTVEEEEGKFNLMLMECSICNEIIHPGCLKIKESEGVVNDECPNCWECPKC [L58C] it is 0.066 ± 0.15; for LPHTAVCLVCGEAGKEDTVEEEEGKFNLMLMECSICNEIIHPGCLKIKESEGVVNDETPNCWECPKC [L58T] it is 0.206 ± 0.096.

Consider LPHTAVCLVCGEAGKEDTVEEEEGKFNLMLMECSICNEIIHPGCLKIKESEGVVNDEEPNCWECPKC [L58E], for which the abundance fitness came out at 0.011 ± 0.13. The figure for LPHTAVCLVCGEAGKEDTVEEEEGKFNLMLMECSICNEIIHPGCLKIKESEGVVNDEAPNCWECPKC [L58A] is -0.454 ± 0.23; for LPHTAVCLVCGEAGKEDTVEEEEGKFNLMLMECSICNEIIHPGCLKIKESEGVVNDEVPNCWECPKC [L58V] it is -0.036 ± 0.078; for LPHTAVCLVCGEAGKEDTVEEEEGKFNLMLMECSICNEIIHPGCLKIKESEGVVNDEWPNCWECPKC [L58W] it is -0.149 ± 0.095.

For LPHTAVCLVCGEAGKEDTVEEEEGKFNLMLMECSICNEIIHPGCLKIKESEGVVNDESPNCWECPKC [L58S], the abundance fitness is 0.051 ± 0.088. LPHTAVCLVCGEAGKEDTVEEEEGKFNLMLMECSICNEIIHPGCLKIKESEGVVNDERPNCWECPKC [L58R]: the abundance fitness is 0.076 ± 0.082. On to LPHTAVCLVCGEAGKEDTVEEEEGKFNLMLMECSICNEIIHPGCLKIKESEGVVNDEPPNCWECPKC [L58P], for which the abundance fitness was -0.408 ± 0.16. Regarding LPHTAVCLVCGEAGKEDTVEEEEGKFNLMLMECSICNEIIHPGCLKIKESEGVVNDEHPNCWECPKC [L58H], the abundance fitness was 0.194 ± 0.16. As for LPHTAVCLVCGEAGKEDTVEEEEGKFNLMLMECSICNEIIHPGCLKIKESEGVVNDEKPNCWECPKC [L58K], the abundance fitness was determined as 0.14 ± 0.12. Regarding LPHTAVCLVCGEAGKEDTVEEEEGKFNLMLMECSICNEIIHPGCLKIKESEGVVNDEQPNCWECPKC [L58Q], the abundance fitness is -0.107 ± 0.16.
